# T1: TROP2 (Trophoblast cell surface antigen 2) (UniProt P09758 27-323, limits assumed)
# T1 sequence (looked up): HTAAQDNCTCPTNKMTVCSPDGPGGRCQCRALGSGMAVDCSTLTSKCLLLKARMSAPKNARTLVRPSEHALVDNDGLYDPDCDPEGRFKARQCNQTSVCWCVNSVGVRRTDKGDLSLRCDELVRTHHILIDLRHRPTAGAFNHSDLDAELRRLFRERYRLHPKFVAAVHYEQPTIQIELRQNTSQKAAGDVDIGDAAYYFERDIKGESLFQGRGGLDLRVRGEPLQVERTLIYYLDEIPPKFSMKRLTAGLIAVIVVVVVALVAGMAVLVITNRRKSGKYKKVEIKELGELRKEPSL
# Target: T1, TROP2 (Trophoblast cell surface antigen …)
# Experiment: cell-based or functional assay
binder,measurement,value
"ADC1 (hRS9 antibody conjugated to CB07-Exatecan) (antibody, human IgG1, kappa, DAR 4.2, V domains shown, CB07-Exatecan linker-drug conjugated to sulfhydryls of TCEP-reduced cysteines; average DAR (p) 4.2 over the whole antibody; positions not given) VH: QVQLQQSGSELKKPGASVKVSCKASGYTFTNYGMNWVKQAPGQGLKWMGWINTYTGEPTYTDDFKGRFAFSLDTSVSTAYLQISSLKADDTAVYFCARGGFGSSYWYFDVWGQGTLVTVSS VL: DIQLTQSPSSLSASVGDRVSITCKASQDVSIAVAWYQQKPGKAPKLLIYSASYRYTGVPDRFSGSGSGTDFTLTISSLQPEDFAVYYCQQHYITPLTFGAGTKVEIKR","growth inhibition EC50 (CCK-8 cell proliferation, 120 h), MDA-MB-453 cells",0.64 µg/mL
same,"growth inhibition EC50 (CCK-8 cell proliferation, 120 h), MDA-MB-468 cells",0.158 µg/mL
same,"growth inhibition EC50 (CCK-8 cell proliferation, 120 h), MX-1 cells",0.233 µg/mL

# Source: US20250381283A1, “METHOD FOR TREATING SOLID TUMOR” (priority 2022, published 2025)
